Measured values published in patent US20230381310A1.

Biological target: human FcγRIIb (CD32B) (human) (UniProt P31994)
Test: cell-based or functional assay

UniProt P31994, sequence (P31994 43-310): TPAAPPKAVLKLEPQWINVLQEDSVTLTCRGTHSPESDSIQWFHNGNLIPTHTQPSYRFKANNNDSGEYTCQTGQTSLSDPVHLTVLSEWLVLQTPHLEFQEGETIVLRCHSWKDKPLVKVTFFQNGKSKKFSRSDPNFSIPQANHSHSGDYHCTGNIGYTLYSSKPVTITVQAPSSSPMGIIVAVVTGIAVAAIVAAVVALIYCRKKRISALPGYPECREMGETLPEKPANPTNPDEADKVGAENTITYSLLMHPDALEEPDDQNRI

With rituximab F(ab')2 fragment as the substance, how does the surface accessible CD20 after 6 h culture (CLL cells) read?
The surface accessible CD20 after 6 h culture (CLL cells) was 40%.
